Assay results reported in the supplement of paper PMC7877785.
± gives the uncertainty stated by the source.

Assay: self-splicing fitness, log relative to wild type (ln ratio); higher = more splicing; Tetrahymena group I intron in knt gene, E. coli kanamycin selection, DiMSum; sequences stand for … in CUCUCU…GGAGGGAAAAGUUAUCAGGCAUGCACCUGGUAGCUAGUCUUUAAACCAAUAGAUUGCAUCGGUUUAAAAGGCAAGACCGUCAAAUUGCGGGAAAGGGGUCAACAGCCGUUCAGUACCAAGUCUCAGGGGAAACUUUGAGAUGGCCUUGCAAAGGGUAUGGUAAUAAGCUGACGGACAUGGUCCUAACCACGCAGCCAAGUCCUAAGUCAACAGAUCUUCUGUUGAUAUGGAUGCAGUUCACAGACUAAAUGUCGGUCGGGGAAGAUGUAUUCUUCUCAUAAGAUAUAGUCGGACCUCUCCUUAAUGGGAGCUAGCGGAUGAAGUGAUGCAACACUGGAGCCGCUGGGAACUAAUUUGUAUGCGAAAGUAUAUUGAUUAGUUUUGGAGUACUCGUGGUCG
In short: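 A randomised library covering all eight P1ex-region intron nucleotides was built with the intron in the knt kanamycin-resistance gene on pET-22b(+) and held in E. coli BL21(DE3). Cells were grown overnight at 37°C or 30°C on LB agar, with or without 25 μg/mL kanamycin, plus 100 μg/mL carbenicillin, 50 μM IPTG and 0.2% rhamnose, and pooled colonies were amplicon-sequenced on an Illumina HiSeq 2500. DiMSum fitness is the error-weighted combination of wild-type-normalised replicate fold changes, kanamycin versus none.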

Row | Sequence | self-splicing fitness (ln) (30 °C) | self-splicing fitness (ln) (37 °C)
1 | UCCGAGCAAUAUUACGUAGA | -2.09 ± 0.14 | -1.42 ± 0.2
2 | UCCGAGCAAUAUUACGUAGC | -3.33 ± 0.23 | -2.14 ± 0.28
3 | UCCGAGCAAUAUUACGUCCA | -2.89 ± 0.38 | -2.37 ± 0.34
4 | UCCGAGCAAUAUUACGUCUC | -2.26 ± 0.21 | -2.99 ± 0.43
5 | UCCGAGCAAUAUUACGUGCA | -1.45 ± 0.15 | -1.47 ± 0.12
6 | UCCGAGCAAUAUUACGUGCC | -3.03 ± 0.26 | -2.97 ± 0.35
7 | UCCGAGCAAUAUUACGUGCU | -3.32 ± 0.26 | -2.61 ± 0.29
8 | UCCGAGCAAUAUUACGUUCG | -2.69 ± 0.49 | -1.78 ± 0.42
9 | UCCGAGCAAUAUUACGUUGC | -3.03 ± 0.21 | -2.16 ± 0.24
10 | UCCUAGCAAUAUUACGAAGG | -2.91 ± 0.15 | -2.1 ± 0.19
11 | UCCUAGCAAUAUUACGAGCG | -1.5 ± 0.099 | -1.15 ± 0.14
12 | UCCUAGCAAUAUUACGAUAU | -3.78 ± 0.28 | -2.72 ± 0.23
13 | UCCUAGCAAUAUUACGAUCG | -3.36 ± 0.21 | -2.33 ± 0.26
14 | UCCUAGCAAUAUUACGCGCA | -1.31 ± 0.1 | -0.0853 ± 0.097
15 | UCCUAGCAAUAUUACGCGGG | -3.2 ± 0.1 | -2.66 ± 0.14
16 | UCCUAGCAAUAUUACGCGUC | -3.53 ± 0.35 | -3.53 ± 0.42
17 | UCCUAGCAAUAUUACGGACA | -2.68 ± 0.37 | -2.29 ± 0.31
18 | UCCUAGCAAUAUUACGGAUA | -2.52 ± 0.2 | -0.547 ± 0.13
19 | UCCUAGCAAUAUUACGGCCA | -3.17 ± 0.15 | -1.74 ± 0.11
20 | UCCUAGCAAUAUUACGGCUA | – | -2.35 ± 0.27
21 | UCCUAGCAAUAUUACGGUAU | -3.23 ± 0.16 | -1.76 ± 0.18
22 | UCCUAGCAAUAUUACGGUCU | -1.59 ± 0.06 | -0.444 ± 0.07
23 | UCCUAGCAAUAUUACGUACG | -3.14 ± 0.18 | -1.78 ± 0.2
24 | UCCUAGCAAUAUUACGUAUC | -2.65 ± 0.14 | -2.44 ± 0.21
25 | UCCUAGCAAUAUUACGUCGA | -0.0892 ± 0.07 | 0.0864 ± 0.078

Row | Sequence | self-splicing fitness (ln) (30 °C) | self-splicing fitness (ln) (37 °C)
26 | UCCUAGCAAUAUUACGUGCG | -3.5 ± 0.2 | -1.98 ± 0.16
27 | UCCUAGCAAUAUUACGUUUU | -3.41 ± 0.21 | -2.69 ± 0.2
28 | UCGAAGCAAUAUUACGAAUA | -1.96 ± 0.2 | -1.76 ± 0.3
29 | UCGAAGCAAUAUUACGACAC | -2.44 ± 0.41 | -2.26 ± 0.38
30 | UCGAAGCAAUAUUACGACUG | -1.11 ± 0.095 | -0.774 ± 0.13
31 | UCGAAGCAAUAUUACGAGGA | -3.21 ± 0.39 | -1.19 ± 0.27
32 | UCGAAGCAAUAUUACGAUAA | -2.17 ± 0.13 | -1.13 ± 0.13
33 | UCGAAGCAAUAUUACGCGGG | -2.18 ± 0.19 | -1.68 ± 0.19
34 | UCGAAGCAAUAUUACGGACG | -0.371 ± 0.13 | 0.158 ± 0.12
35 | UCGAAGCAAUAUUACGGAUC | -3.14 ± 0.23 | -2.64 ± 0.37
36 | UCGAAGCAAUAUUACGGCCU | -2.16 ± 0.22 | -1.77 ± 0.21
37 | UCGAAGCAAUAUUACGGCUA | -2.29 ± 0.15 | -1.41 ± 0.099
38 | UCGAAGCAAUAUUACGGCUG | -1.98 ± 0.14 | -0.494 ± 0.14
39 | UCGAAGCAAUAUUACGGGUU | -4.87 ± 0.29 | -1.47 ± 0.14
40 | UCGAAGCAAUAUUACGGUAU | -3.58 ± 0.16 | -1.73 ± 0.14
41 | UCGAAGCAAUAUUACGGUUU | -3.83 ± 0.21 | -2.72 ± 0.29
42 | UCGAAGCAAUAUUACGUAAU | -3.88 ± 0.15 | -1.62 ± 0.12
43 | UCGAAGCAAUAUUACGUACG | -1.01 ± 0.082 | 0.00936 ± 0.11
44 | UCGAAGCAAUAUUACGUCAA | -1.52 ± 0.11 | -1.15 ± 0.1
45 | UCGAAGCAAUAUUACGUCCA | -1.08 ± 0.13 | -0.411 ± 0.14
46 | UCGAAGCAAUAUUACGUCGG | -2.65 ± 0.17 | -3.7 ± 0.31
47 | UCGAAGCAAUAUUACGUGCG | -1.07 ± 0.086 | -0.299 ± 0.1
48 | UCGAAGCAAUAUUACGUGUC | – | -2.37 ± 0.37
49 | UCGAAGCAAUAUUACGUUCU | -1.72 ± 0.091 | -1.53 ± 0.13
50 | UCGCAGCAAUAUUACGACGC | -1.81 ± 0.48 | –

Row | Sequence | self-splicing fitness (ln) (30 °C) | self-splicing fitness (ln) (37 °C)
51 | UCGCAGCAAUAUUACGAUUA | -1.06 ± 0.11 | -0.805 ± 0.11
52 | UCGCAGCAAUAUUACGCAAU | -2.15 ± 0.19 | -2.92 ± 0.35
53 | UCGCAGCAAUAUUACGCAUC | -2.52 ± 0.21 | -1.57 ± 0.17
54 | UCGCAGCAAUAUUACGCCGU | -3.48 ± 0.26 | -2.99 ± 0.4
55 | UCGCAGCAAUAUUACGCGAU | -2.55 ± 0.18 | -2.97 ± 0.25
56 | UCGCAGCAAUAUUACGCGGA | – | -2.29 ± 0.25
57 | UCGCAGCAAUAUUACGCUAA | -1.96 ± 0.14 | -1.72 ± 0.15
58 | UCGCAGCAAUAUUACGCUCG | -3.23 ± 0.28 | -1.61 ± 0.2
59 | UCGCAGCAAUAUUACGGACA | -1.38 ± 0.17 | -1.83 ± 0.14
60 | UCGCAGCAAUAUUACGGCAA | -0.188 ± 0.079 | 0.0609 ± 0.11
61 | UCGCAGCAAUAUUACGGCCC | – | -2.41 ± 0.41
62 | UCGCAGCAAUAUUACGGGCU | -3.71 ± 0.17 | -2.63 ± 0.16
63 | UCGCAGCAAUAUUACGGUCG | -0.126 ± 0.094 | 0.0192 ± 0.14
64 | UCGCAGCAAUAUUACGUCAU | -3.77 ± 0.14 | -2.65 ± 0.13
65 | UCGCAGCAAUAUUACGUCGA | -1.81 ± 0.13 | -2.03 ± 0.18
66 | UCGCAGCAAUAUUACGUCGU | -1.95 ± 0.081 | -0.965 ± 0.096
67 | UCGCAGCAAUAUUACGUGAU | -2.2 ± 0.25 | -3.26 ± 0.35
68 | UCGCAGCAAUAUUACGUGGC | -3.81 ± 0.42 | -2.45 ± 0.31
69 | UCGCAGCAAUAUUACGUGGU | -3.38 ± 0.13 | -3.24 ± 0.19
70 | UCGCAGCAAUAUUACGUGUU | -2.49 ± 0.092 | -1.67 ± 0.11
71 | UCGCAGCAAUAUUACGUUAU | -3.3 ± 0.26 | -2.51 ± 0.24
72 | UCGCAGCAAUAUUACGUUUG | -2.89 ± 0.099 | -1.09 ± 0.11
73 | UCGGAGCAAUAUUACGAAAC | -2.87 ± 0.28 | –
74 | UCGGAGCAAUAUUACGAAUG | -4.16 ± 0.36 | -2.15 ± 0.27
75 | UCGGAGCAAUAUUACGAGCG | -2.48 ± 0.23 | -0.586 ± 0.23

Row | Sequence | self-splicing fitness (ln) (30 °C) | self-splicing fitness (ln) (37 °C)
76 | UCGGAGCAAUAUUACGAGUA | -3.11 ± 0.42 | -1.89 ± 0.31
77 | UCGGAGCAAUAUUACGAUAG | -3.29 ± 0.32 | -2.83 ± 0.35
78 | UCGGAGCAAUAUUACGCAAG | – | -2.23 ± 0.43
79 | UCGGAGCAAUAUUACGCAGG | -2.57 ± 0.44 | -2.28 ± 0.43
80 | UCGGAGCAAUAUUACGCUGG | -3.78 ± 0.46 | -1.26 ± 0.17
81 | UCGGAGCAAUAUUACGGAGA | -3.67 ± 0.21 | -1.49 ± 0.14
82 | UCGGAGCAAUAUUACGGCUU | -3.05 ± 0.32 | -1.45 ± 0.35
83 | UCGGAGCAAUAUUACGGGUG | -3.03 ± 0.24 | -2.94 ± 0.2
84 | UCGGAGCAAUAUUACGGGUU | -2.86 ± 0.41 | –
85 | UCGGAGCAAUAUUACGGUAC | -3.19 ± 0.29 | -3.59 ± 0.36
86 | UCGGAGCAAUAUUACGGUUU | – | -1.87 ± 0.34
87 | UCGGAGCAAUAUUACGUACU | – | -2.6 ± 0.34
88 | UCGGAGCAAUAUUACGUAGU | – | -0.551 ± 0.29
89 | UCGGAGCAAUAUUACGUGAC | -1.95 ± 0.34 | -2.14 ± 0.46
90 | UCGGAGCAAUAUUACGUGGU | -3.59 ± 0.39 | -1.72 ± 0.34
91 | UCGUAGCAAUAUUACGAAGG | -3.63 ± 0.47 | –
92 | UCGUAGCAAUAUUACGAAUG | -2.01 ± 0.29 | –
93 | UCGUAGCAAUAUUACGACAU | -3.861 ± 0.035 | -2.69 ± 0.043
94 | UCGUAGCAAUAUUACGACUG | -1.02 ± 0.2 | -2.28 ± 0.34
95 | UCGUAGCAAUAUUACGAUAU | -3.38 ± 0.31 | -1.85 ± 0.37
96 | UCGUAGCAAUAUUACGAUGC | -4.1 ± 0.33 | -2.27 ± 0.27
97 | UCGUAGCAAUAUUACGCAAA | -3.4 ± 0.31 | -1.09 ± 0.31
98 | UCGUAGCAAUAUUACGCAUU | -3.24 ± 0.23 | -1.84 ± 0.15
99 | UCGUAGCAAUAUUACGCCUU | -2.21 ± 0.13 | -0.619 ± 0.13
